Results from PMC2175199 (The Journal of Cell Biology, 2000).

Assays:
XSA2 = target: T1, XSA2 (Xenopus laevis (endogenous in egg …, UniProt Q9DGN0 1-1194)); experiment: co-IP
T1 sequence: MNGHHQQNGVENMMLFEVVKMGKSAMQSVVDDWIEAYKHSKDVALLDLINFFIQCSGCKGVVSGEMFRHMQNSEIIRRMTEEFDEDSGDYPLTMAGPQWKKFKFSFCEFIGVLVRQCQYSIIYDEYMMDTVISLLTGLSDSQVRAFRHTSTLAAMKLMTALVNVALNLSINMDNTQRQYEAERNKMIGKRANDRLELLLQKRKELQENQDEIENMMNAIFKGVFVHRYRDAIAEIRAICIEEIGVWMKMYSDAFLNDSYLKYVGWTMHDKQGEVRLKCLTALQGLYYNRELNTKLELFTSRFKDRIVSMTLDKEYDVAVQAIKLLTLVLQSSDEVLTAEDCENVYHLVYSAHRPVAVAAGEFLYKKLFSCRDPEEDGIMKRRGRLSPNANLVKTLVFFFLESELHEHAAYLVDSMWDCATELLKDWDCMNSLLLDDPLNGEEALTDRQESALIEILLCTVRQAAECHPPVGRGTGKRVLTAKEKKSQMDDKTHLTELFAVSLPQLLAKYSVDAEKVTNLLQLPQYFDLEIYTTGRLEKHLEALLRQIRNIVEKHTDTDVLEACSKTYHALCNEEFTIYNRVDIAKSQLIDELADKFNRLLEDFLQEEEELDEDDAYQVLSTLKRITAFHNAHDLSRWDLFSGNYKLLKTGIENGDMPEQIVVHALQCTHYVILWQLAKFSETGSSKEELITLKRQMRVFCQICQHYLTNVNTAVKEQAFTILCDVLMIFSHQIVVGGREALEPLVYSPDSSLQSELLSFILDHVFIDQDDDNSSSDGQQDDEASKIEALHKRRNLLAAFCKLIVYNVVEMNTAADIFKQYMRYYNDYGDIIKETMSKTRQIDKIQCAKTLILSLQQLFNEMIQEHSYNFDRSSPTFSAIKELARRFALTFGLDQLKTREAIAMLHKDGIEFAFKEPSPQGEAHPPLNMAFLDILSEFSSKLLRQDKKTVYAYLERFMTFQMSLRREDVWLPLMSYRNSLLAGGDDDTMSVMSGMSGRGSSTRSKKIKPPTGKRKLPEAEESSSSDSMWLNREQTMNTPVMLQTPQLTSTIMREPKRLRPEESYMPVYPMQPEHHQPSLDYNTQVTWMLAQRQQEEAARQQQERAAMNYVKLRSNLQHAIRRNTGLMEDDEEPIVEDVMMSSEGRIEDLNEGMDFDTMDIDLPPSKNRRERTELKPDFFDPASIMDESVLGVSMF

XSA1 = target: T2, XSA1 (Xenopus laevis (endogenous in egg …, UniProt Q9DGN1 1-1265)); experiment: co-IP
T2 sequence: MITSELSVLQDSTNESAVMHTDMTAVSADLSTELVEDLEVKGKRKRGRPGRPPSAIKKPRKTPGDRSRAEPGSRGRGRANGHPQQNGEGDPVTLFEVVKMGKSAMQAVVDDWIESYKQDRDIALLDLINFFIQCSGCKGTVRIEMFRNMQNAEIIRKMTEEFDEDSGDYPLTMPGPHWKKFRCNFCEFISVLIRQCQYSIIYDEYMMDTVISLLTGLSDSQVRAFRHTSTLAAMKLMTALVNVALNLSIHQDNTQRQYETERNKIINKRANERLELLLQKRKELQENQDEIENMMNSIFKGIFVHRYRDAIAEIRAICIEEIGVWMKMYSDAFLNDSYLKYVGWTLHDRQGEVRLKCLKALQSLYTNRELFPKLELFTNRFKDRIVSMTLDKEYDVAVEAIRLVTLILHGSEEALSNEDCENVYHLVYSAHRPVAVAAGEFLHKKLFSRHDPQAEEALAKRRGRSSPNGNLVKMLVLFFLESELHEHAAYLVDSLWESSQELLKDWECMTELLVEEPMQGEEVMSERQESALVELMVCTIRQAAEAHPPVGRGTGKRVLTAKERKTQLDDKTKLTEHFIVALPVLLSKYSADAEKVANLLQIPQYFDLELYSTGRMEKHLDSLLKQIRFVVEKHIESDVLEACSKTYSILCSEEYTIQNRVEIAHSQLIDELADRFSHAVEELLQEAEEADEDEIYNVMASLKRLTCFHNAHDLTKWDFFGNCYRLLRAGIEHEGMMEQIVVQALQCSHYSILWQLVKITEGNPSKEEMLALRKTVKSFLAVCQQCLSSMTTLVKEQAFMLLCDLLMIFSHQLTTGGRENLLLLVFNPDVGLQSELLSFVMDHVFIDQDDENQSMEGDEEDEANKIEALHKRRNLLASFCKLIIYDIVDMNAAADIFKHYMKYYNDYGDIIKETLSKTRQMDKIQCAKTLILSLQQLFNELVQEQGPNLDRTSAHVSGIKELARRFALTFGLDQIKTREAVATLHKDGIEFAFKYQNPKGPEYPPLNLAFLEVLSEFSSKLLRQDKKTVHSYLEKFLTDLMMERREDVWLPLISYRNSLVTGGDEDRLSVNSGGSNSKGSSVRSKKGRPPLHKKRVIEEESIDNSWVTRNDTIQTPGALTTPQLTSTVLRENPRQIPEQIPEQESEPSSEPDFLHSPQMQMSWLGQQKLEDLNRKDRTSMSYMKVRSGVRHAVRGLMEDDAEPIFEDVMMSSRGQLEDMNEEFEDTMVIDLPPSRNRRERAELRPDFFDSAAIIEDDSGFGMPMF

percent depleted from the extract by anti-XSA2 (XSA2): ~10%
percent depleted from the extract by anti-XSA1 (XSA1): ~90%
B1: XRAD21 (natural protein)
chain: MFYAHFVLSKRGPLAKIWLAAHWDKKLTKAHVFECNLESSVESIICPKVKMALRTSGHLLLGVVRIYHRKAKYLLADCNEAFIKIKMAFRPGVVDLPEENREAAYNAITLPEEFHDFDQPLPDLDDIDVAQQFSLNQSRVEEITMREEVSNINILQDNDFGDFGMDDREMMREGSAFEDDMLTTNASNLKLEPEQSTSQLNEKSNHLEYDDQYKDDNFGEGNEGGILDDKLLSNDAGGIFDDPPAMPEEGVAMPEQPVHDDLDDDDNVSMGAPDSPDSVDPVEPLPTMTDQTTLVPNEEEAFALEPIDITVKETKAKRKRKLIVDSVKELDSKTIRAQLSDYSDIVTTLDLAPPTKKLMMWKETGGVEKLFSLPAQPLWNTRLLKLFTRCLTPLVLDDLRKRRKGGEADNLDEFLKEFENPEVPREELRPQDVIDQPILEEASHLQESLMEGSRTHLDDTIMPPPPPKQGVKRDSLQMEPEPMPMMQEAEPQIEMPPPPLPPPLELPPEEPQSISDLIPELNLLPEKEKEKDEEEEEEEEDTTGTEQDQEERRWNKRTQQMLHGLQRVLAKTGAESISLLDLCRNTNRKQAAAKFYSFLVLKKQQAIELTQREPYSDIVATPGPRFHTV
